{
  "source": "the RNAGym collection of RNA variant scans (doi:10.7554/elife.80360)",
  "parents": {"B1": {"name": "Twister Ribozyme (parent)", "chain": "AACACUGCCAAUGCCGGUCCCAAGCCCGGAUAAAAGUGGAGGGGGCGG"}},
  "data": [
    {"variants_of": "B1", "experiment": "self-cleavage, relative activity (ratio to wild type); higher = more cleavage; co-transcriptional", "values": [
      {"variant": "C14A A32U", "self-cleavage": 0.848},
      {"variant": "C14A C27G", "self-cleavage": 0.0739},
      {"variant": "C14A C27A", "self-cleavage": 0.31},
      {"variant": "C14G C25G", "self-cleavage": 0.0771},
      {"variant": "C14G C25U", "self-cleavage": 0.0566},
      {"variant": "G13U C25A", "self-cleavage": 0.0642},
      {"variant": "G13U C25U", "self-cleavage": 0.129},
      {"variant": "C14G C20A", "self-cleavage": 0.104},
      {"variant": "C14A U31A", "self-cleavage": 0.796},
      {"variant": "C15A C46G", "self-cleavage": 0.525},
      {"variant": "C15A C46U", "self-cleavage": 0.623},
      {"variant": "C15A G29C", "self-cleavage": 0.156},
      {"variant": "C15A G29U", "self-cleavage": 0.607},
      {"variant": "G13U A30U", "self-cleavage": 0.749},
      {"variant": "G13U A22G", "self-cleavage": 0.098},
      {"variant": "G13U A22U", "self-cleavage": 0.174},
      {"variant": "G13U C14U", "self-cleavage": 0.635},
      {"variant": "C14A G16C", "self-cleavage": 0.0948},
      {"variant": "C15A C21U", "self-cleavage": 0.0997},
      {"variant": "C15A C21A", "self-cleavage": 0.133},
      {"variant": "C15G A23C", "self-cleavage": 0.137},
      {"variant": "C15G A23U", "self-cleavage": 0.06},
      {"variant": "C14U G16C", "self-cleavage": 0.36},
      {"variant": "C14U G16A", "self-cleavage": 0.871},
      {"variant": "G13U G44U", "self-cleavage": 0.428},
      {"variant": "G13U G44A", "self-cleavage": 0.821},
      {"variant": "C15G G44A", "self-cleavage": 0.0802},
      {"variant": "C14A G38U", "self-cleavage": 0.676},
      {"variant": "C15G G17C", "self-cleavage": 0.157},
      {"variant": "C15G G17U", "self-cleavage": 0.319},
      {"variant": "C15G G17A", "self-cleavage": 0.326},
      {"variant": "C15U A32U", "self-cleavage": 0.958},
      {"variant": "C15G A30U", "self-cleavage": 0.108},
      {"variant": "G13U A23C", "self-cleavage": 0.0557},
      {"variant": "G13U A23U", "self-cleavage": 0.0818},
      {"variant": "C14U U37C", "self-cleavage": 0.602},
      {"variant": "G13U C46G", "self-cleavage": 0.328},
      {"variant": "G13U C46A", "self-cleavage": 0.361},
      {"variant": "G13U C46U", "self-cleavage": 0.586},
      {"variant": "C14G A34G", "self-cleavage": 0.182},
      {"variant": "C14G G45A", "self-cleavage": 0.113},
      {"variant": "C14G G45U", "self-cleavage": 0.101},
      {"variant": "C14G G45C", "self-cleavage": 0.0594},
      {"variant": "C14U G29C", "self-cleavage": 1.09},
      {"variant": "C15A U31C", "self-cleavage": 0.718},
      {"variant": "G13U A40G", "self-cleavage": 0.152},
      {"variant": "C14A A33G", "self-cleavage": 0.84},
      {"variant": "C14A A33C", "self-cleavage": 0.884},
      {"variant": "C14A G41C", "self-cleavage": 0.294},
      {"variant": "C14U G17A", "self-cleavage": 0.538},
      {"variant": "C14U C25U", "self-cleavage": 0.909},
      {"variant": "C14U C25A", "self-cleavage": 0.27},
      {"variant": "C14A C46G", "self-cleavage": 0.87},
      {"variant": "C14G G29A", "self-cleavage": 0.182},
      {"variant": "C14G G43A", "self-cleavage": 0.0789},
      {"variant": "C14G G28U", "self-cleavage": 0.157},
      {"variant": "C14U A33C", "self-cleavage": 0.97},
      {"variant": "C14U A33G", "self-cleavage": 0.927},
      {"variant": "G13U G28C", "self-cleavage": 0.405},
      {"variant": "C15A C25G", "self-cleavage": 0.192},
      {"variant": "C15A G42A", "self-cleavage": 0.156},
      {"variant": "G13U G42C", "self-cleavage": 0.181},
      {"variant": "G13U G42U", "self-cleavage": 0.114},
      {"variant": "G13U G42A", "self-cleavage": 0.139},
      {"variant": "C15A G17A", "self-cleavage": 0.061},
      {"variant": "C15A G17U", "self-cleavage": 0.0769},
      {"variant": "C14U A34G", "self-cleavage": 0.885},
      {"variant": "C15U A22U", "self-cleavage": 0.703},
      {"variant": "C15U A22C", "self-cleavage": 0.932},
      {"variant": "C14G A32U", "self-cleavage": 0.184},
      {"variant": "C14A G45C", "self-cleavage": 0.58},
      {"variant": "C14A G45A", "self-cleavage": 0.801},
      {"variant": "C14G U18C", "self-cleavage": 0.074},
      {"variant": "C14G U18G", "self-cleavage": 0.0282},
      {"variant": "C14G U18A", "self-cleavage": 0.0727},
      {"variant": "C15G A40U", "self-cleavage": 0.0313},
      {"variant": "G13U G48A", "self-cleavage": 0.309},
      {"variant": "G13U G48U", "self-cleavage": 0.357},
      {"variant": "C14A C19U", "self-cleavage": 1.07},
      {"variant": "C14A C19G", "self-cleavage": 0.359},
      {"variant": "C14A C19A", "self-cleavage": 0.366},
      {"variant": "C14A G39A", "self-cleavage": 0.409},
      {"variant": "C15G G16A", "self-cleavage": 0.498},
      {"variant": "C15G G16U", "self-cleavage": 0.814},
      {"variant": "C15G G16C", "self-cleavage": 0.305},
      {"variant": "C15A G28U", "self-cleavage": 0.736},
      {"variant": "C15A G28C", "self-cleavage": 0.757},
      {"variant": "C15A G24U", "self-cleavage": 0.0837},
      {"variant": "C14A A23C", "self-cleavage": 0.348},
      {"variant": "C14A G44A", "self-cleavage": 0.838},
      {"variant": "C14A G44C", "self-cleavage": 0.772},
      {"variant": "G13U C20U", "self-cleavage": 0.134},
      {"variant": "G13C U31G", "self-cleavage": 0.585},
      {"variant": "G13C U31A", "self-cleavage": 0.767},
      {"variant": "C15G G28C", "self-cleavage": 0.599},
      {"variant": "C15G G28A", "self-cleavage": 0.624},
      {"variant": "C14G G48C", "self-cleavage": 0.163},
      {"variant": "C14G G48A", "self-cleavage": 0.0949},
      {"variant": "C14A G47U", "self-cleavage": 0.66},
      {"variant": "C14A G47A", "self-cleavage": 0.749},
      {"variant": "C14G C26G", "self-cleavage": 0.0666},
      {"variant": "C14G C26A", "self-cleavage": 0.0764},
      {"variant": "C14U G38U", "self-cleavage": 0.904},
      {"variant": "C14U A40C", "self-cleavage": 0.256},
      {"variant": "C14U A40U", "self-cleavage": 0.191},
      {"variant": "C14G G42C", "self-cleavage": 0.095},
      {"variant": "C14U A22U", "self-cleavage": 0.848},
      {"variant": "C15G U31A", "self-cleavage": 0.186},
      {"variant": "C15G A22U", "self-cleavage": 0.0572},
      {"variant": "C15G A22G", "self-cleavage": 0.0636},
      {"variant": "C14A C20G", "self-cleavage": 0.126},
      {"variant": "C14A C20A", "self-cleavage": 0.165},
      {"variant": "C14A A30G", "self-cleavage": 0.803},
      {"variant": "C14A A30C", "self-cleavage": 0.819},
      {"variant": "C14U U31A", "self-cleavage": 0.92},
      {"variant": "C14U U31G", "self-cleavage": 0.941},
      {"variant": "C15A A34U", "self-cleavage": 0.273},
      {"variant": "C14A G43C", "self-cleavage": 0.182},
      {"variant": "C14A G43A", "self-cleavage": 0.309},
      {"variant": "C15G G41C", "self-cleavage": 0.0823},
      {"variant": "C15A G41U", "self-cleavage": 0.177},
      {"variant": "C14G A22U", "self-cleavage": 0.128},
      {"variant": "C14G A22C", "self-cleavage": 0.372},
      {"variant": "G13U G45C", "self-cleavage": 0.194},
      {"variant": "G13U G45U", "self-cleavage": 0.212},
      {"variant": "C15G G48C", "self-cleavage": 0.0718},
      {"variant": "G13C G42U", "self-cleavage": 0.112},
      {"variant": "G13C G42C", "self-cleavage": 0.166},
      {"variant": "C14A U37A", "self-cleavage": 0.711},
      {"variant": "C14A A40G", "self-cleavage": 0.136},
      {"variant": "C14A A40C", "self-cleavage": 0.189},
      {"variant": "G13U G39A", "self-cleavage": 0.113},
      {"variant": "C15G G45A", "self-cleavage": 0.113},
      {"variant": "C15G G45U", "self-cleavage": 0.133},
      {"variant": "C15G G45C", "self-cleavage": 0.0924},
      {"variant": "G13U A33G", "self-cleavage": 0.68},
      {"variant": "G13U A33U", "self-cleavage": 0.403},
      {"variant": "C14U G48U", "self-cleavage": 1.17},
      {"variant": "G13C G47U", "self-cleavage": 0.145},
      {"variant": "G13C G47A", "self-cleavage": 0.154},
      {"variant": "G13C G47C", "self-cleavage": 0.179},
      {"variant": "C14A G42A", "self-cleavage": 0.417},
      {"variant": "C14A G42U", "self-cleavage": 0.368},
      {"variant": "C14A G42C", "self-cleavage": 0.363},
      {"variant": "G13U A35G", "self-cleavage": 0.127},
      {"variant": "C15A G44A", "self-cleavage": 0.79},
      {"variant": "C15A G44C", "self-cleavage": 0.57},
      {"variant": "C15A G44U", "self-cleavage": 0.661},
      {"variant": "C15A U18C", "self-cleavage": 0.104},
      {"variant": "C15A U18A", "self-cleavage": 0.0699},
      {"variant": "C15A A22G", "self-cleavage": 0.141},
      {"variant": "C15A A22U", "self-cleavage": 0.24},
      {"variant": "C14G G24A", "self-cleavage": 0.0254},
      {"variant": "C14G G24U", "self-cleavage": 0.0521},
      {"variant": "G13U G41C", "self-cleavage": 0.149},
      {"variant": "G13U C21A", "self-cleavage": 0.0794},
      {"variant": "G13U C21G", "self-cleavage": 0.0567},
      {"variant": "C14U A30G", "self-cleavage": 1.02},
      {"variant": "C15A A33C", "self-cleavage": 0.538},
      {"variant": "C14G G41A", "self-cleavage": 0.103},
      {"variant": "G13U C27G", "self-cleavage": 0.0965},
      {"variant": "G13U C27A", "self-cleavage": 0.0958},
      {"variant": "G13U C27U", "self-cleavage": 0.212},
      {"variant": "G13U C19G", "self-cleavage": 0.0472},
      {"variant": "C14G C15A", "self-cleavage": 0.644},
      {"variant": "C14G C15G", "self-cleavage": 0.243},
      {"variant": "C15A G38U", "self-cleavage": 0.355}
    ]}
  ]
}
